Data as given in publication PMC8635308, “Neuropilin 1 regulates bone marrow vascular regeneration and hematopoietic reconstitution” (Nature Communications, 2021).

T1: Mouse NRP1 (Recombinant Mouse Neuropilin-1 Protein, CF) (mouse, UniProt P97333 22-856)
T1 construct: Neuropilin-1, mouse, recombinant soluble protein; also called murine NRP1; mouse NRP1 receptor; source: bought: R&D Systems
T1 sequence (looked up): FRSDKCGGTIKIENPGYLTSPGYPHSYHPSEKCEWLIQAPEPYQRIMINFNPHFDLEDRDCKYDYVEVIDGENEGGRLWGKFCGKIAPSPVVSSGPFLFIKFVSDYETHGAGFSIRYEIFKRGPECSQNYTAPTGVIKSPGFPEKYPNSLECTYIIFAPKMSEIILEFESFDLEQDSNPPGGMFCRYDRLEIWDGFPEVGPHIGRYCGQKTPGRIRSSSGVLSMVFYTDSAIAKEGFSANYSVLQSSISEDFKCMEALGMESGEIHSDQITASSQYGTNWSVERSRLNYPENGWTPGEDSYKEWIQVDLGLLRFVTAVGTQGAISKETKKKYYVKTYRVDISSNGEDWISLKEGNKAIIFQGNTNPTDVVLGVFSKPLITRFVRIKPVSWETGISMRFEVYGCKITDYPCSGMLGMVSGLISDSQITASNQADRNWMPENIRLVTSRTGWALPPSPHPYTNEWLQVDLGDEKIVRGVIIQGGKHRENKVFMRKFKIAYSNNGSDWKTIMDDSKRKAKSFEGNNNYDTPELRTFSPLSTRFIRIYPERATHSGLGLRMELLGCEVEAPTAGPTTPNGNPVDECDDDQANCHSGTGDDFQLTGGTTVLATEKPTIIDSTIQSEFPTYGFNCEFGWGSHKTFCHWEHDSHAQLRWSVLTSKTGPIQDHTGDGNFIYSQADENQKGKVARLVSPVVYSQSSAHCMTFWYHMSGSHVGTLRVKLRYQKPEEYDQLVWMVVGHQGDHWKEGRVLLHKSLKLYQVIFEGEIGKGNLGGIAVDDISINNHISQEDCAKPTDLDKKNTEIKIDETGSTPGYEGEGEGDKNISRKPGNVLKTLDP


Columns and labels:
[1] = target: Mouse NRP1 (Recombinant Mouse Neuropilin-1 Protein, CF) (mouse) (UniProt P97333); assay: SPR; Pioneer SensiQ; mouse NRP1 immobilised on a Polycarboxylate High Capacity (PCH) chip in 10 mM sodium acetate pH 5.0 (2307 RU for mouse SEMA3A Fc, 1565 RU for human SEMA3A Fc); SEMA3A-Fc flowed over; running buffer 20 mM HEPES pH 7.5, 150 mM NaCl, 0.005% Tween-20; OneStep kinetics, single concentration (100 nM mouse or 50 nM human SEMA3A Fc), 75 ul/min
[2] = target: T1, Mouse NRP1 (Recombinant Mouse …); assay: as above; details: both partners purified

Kd [1] [nM] | Kd [2] [nM] | Molecule
1.8 | – | recombinant human full length SEMA3A Fc (huSEMA3A, Lys26-Val771) (from UniProt Q14563 26-771) (Fc fusion)
– | ~4.4 | recombinant mouse SEMA3A Fc (muSEMA3A, Asn21-Lys747) (Fc fusion, UniProt O08665 21-747, looked up, Semaphorin 3A, mouse, Asn21-Lys747, truncated at the C-terminus (lacks the RNRR and RAPR stretches); also called Murine SEMA3A Fc; truncated murine SEMA3A; source: bought: R&D Systems) NYANGKNNVPRLKLSYKEMLESNNVITFNGLANSSSYHTFLLDEERSRLYVGAKDHIFSFNLVNIKDFQKIVWPVSYTRRDECKWAGKDILKECANFIKVLEAYNQTHLYACGTGAFHPICTYIEVGHHPEDNIFKLQDSHFENGRGKSPYDPKLLTASLLIDGELYSGTAADFMGRDFAIFRTLGHHHPIRTEQHDSRWLNDPRFISAHLIPESDNPEDDKVYFFFRENAIDGEHSGKATHARIGQICKNDFGGHRSLVNKWTTFLKARLICSVPGPNGIDTHFDELQDVFLMNSKDPKNPIVYGVFTTSSNIFKGSAVCMYSMSDVRRVFLGPYAHRDGPNYQWVPYQGRVPYPRPGTCPSKTFGGFDSTKDLPDDVITFARSHPAMYNPVFPINNRPIMIKTDVNYQFTQIVVDRVDAEDGQYDVMFIGTDVGTVLKVVSVPKETWHDLEEILLEEMTVFREPTTISAMELSTKQQQLYIGSTAGVAQLPLHRCDIYGKACAECCLARDPYCAWDGSSCSRYFPTAKRRTRRQDIRNGDPLTHCSDLQHHDNHHGPSLEERIIYGVENSSTFLECSPKSQRALVYWQFQRRNEDRKEEIRMGDHIIRTEQGLLLRSLQKKDSGNYLCHAVEHGFMQTLLKVTLEVIDTEHLEELLHKDDDGDGSKIKEMSSSMTPSQKVWYRDFMQLINHPNLNTMDEFCEQVWKRDRKQRRQRPGHSQGSSNK
